Publication PMC8683085, “Serine ADP-ribosylation marks nucleosomes for ALC1-dependent chromatin remodeling” (eLife, 2021)

Target: PARP1 (Homo sapiens, UniProt P09874)
Test: PARP1 ADP-ribose chain elongation on mono-ADP-ribosylated peptide (RP-HPLC), with and without HPF1 titration
Type: biochemical
Settings: 1 μM PARP1, 180 μM H3S10ADPr1 peptide, 2 mM NAD+, 30 °C 25 min, RP-HPLC A280, n = 3
Protocol: To analyze PARP1 and PARP2 ADPr activity on peptide substrates, 2 mM NAD^+ and 1 μM stimulating DNA were combined into the ADPr reaction buffer in the presence of 0.2, 1, or 5 μM PARP1 or PARP2, in a 25 μL reaction (2 μM PARP1/2, 2 μM DNA and 50 μL reaction volume for H2B peptides). All unmodified and mono-ADP-ribosylated substrate peptides were analyzed at a concentration of 180 μM (40 μM for H2B peptides). The reaction was incubated at 30 °C for 25 min, quenched via addition of 95 μL (70 μL in case of H2B peptide reactions) of Solvent A. It was then centrifuged at 20,000 RCF for 5 min and 100 μL of the supernatant was injected into an analytical C18 column for product analysis via RP-HPLC. An elution gradient of 0–35% Solvent B over 20 min was employed to optimize separation of the poly-ADP-ribosylated peptide products. Percent substrate turnover was calculated by integrating the peaks for the starting material and each product on the RP-HPLC A280 trace, normalizing them depending on their number of ADP-ribose moieties, and calculating ratio of total product to total peptide amounts for each reaction. All reactions were performed in triplicate and error bars represent standard deviations. Individual peaks corresponding to products with unique ADP-ribose chain lengths were collected and analyzed by ESI-MS. […]

Chain of PARP1 (P09874 whole entry): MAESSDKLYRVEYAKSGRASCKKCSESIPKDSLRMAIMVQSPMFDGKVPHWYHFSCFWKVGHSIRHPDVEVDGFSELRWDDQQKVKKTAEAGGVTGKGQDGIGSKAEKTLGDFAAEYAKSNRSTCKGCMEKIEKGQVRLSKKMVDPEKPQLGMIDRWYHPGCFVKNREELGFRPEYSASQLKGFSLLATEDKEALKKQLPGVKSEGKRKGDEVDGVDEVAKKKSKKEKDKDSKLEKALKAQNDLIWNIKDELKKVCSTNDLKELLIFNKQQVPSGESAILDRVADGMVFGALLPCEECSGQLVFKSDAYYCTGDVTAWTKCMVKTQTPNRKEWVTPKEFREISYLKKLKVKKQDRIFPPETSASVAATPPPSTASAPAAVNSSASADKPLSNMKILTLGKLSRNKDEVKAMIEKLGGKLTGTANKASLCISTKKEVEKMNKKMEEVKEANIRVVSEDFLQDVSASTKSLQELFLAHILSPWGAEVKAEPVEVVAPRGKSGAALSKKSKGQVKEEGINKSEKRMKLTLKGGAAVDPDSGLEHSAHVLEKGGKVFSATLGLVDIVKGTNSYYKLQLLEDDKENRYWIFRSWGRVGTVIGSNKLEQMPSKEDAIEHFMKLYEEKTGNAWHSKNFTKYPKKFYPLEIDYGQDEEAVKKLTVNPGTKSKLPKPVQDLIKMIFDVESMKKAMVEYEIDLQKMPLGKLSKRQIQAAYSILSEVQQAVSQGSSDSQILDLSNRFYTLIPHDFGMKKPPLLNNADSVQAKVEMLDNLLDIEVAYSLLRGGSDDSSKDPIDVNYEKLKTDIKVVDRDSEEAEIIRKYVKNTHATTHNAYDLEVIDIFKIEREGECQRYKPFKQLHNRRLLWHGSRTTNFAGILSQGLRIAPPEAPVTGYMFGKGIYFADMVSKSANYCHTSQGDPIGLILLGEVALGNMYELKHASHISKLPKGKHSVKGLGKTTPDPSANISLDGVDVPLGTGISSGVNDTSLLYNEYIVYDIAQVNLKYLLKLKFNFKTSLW

IC50 (read-out: HPF1 concentration giving 50% inhibition of PARP1-catalyzed ADP-ribose polymerization) [µM]	HPF1 concentration giving 50% inhibition of PARP1-catalyzed ADP-ribose polymerization	Molecule
~14		HPF1: recombinant FLAG-HPF1, amino acids 27–346, PARP1/2-interacting protein (protein, left off: 6xHis, N-terminal, cleaved | SUMO, N-terminal, cleaved | FLAG, N-terminal, kept) KFCEADVSSDLRKEVENHYKLSLPEDFYHFWKFCEELDPEKPSDSLSASLGLQLVGPYDILAGKHKTKKKSTGLNFNLHWRFYYDPPEFQTIIIGDNKTQYHMGYFRDSPDEFPVYVGINEAKKNCIIVPNGDNVFAAVKLFLTKKLREITDKKKINLLKNIDEKLTEAARELGYSLEQRTVKMKQRDKKVVTKTFHGAGLVVPVDKNDVGYRELPETDADLKRICKTIVEAASDEERLKAFAPIQEMMTFVQFANDECDYGMGLELGMDLFCYGSHYFHKVAGQLLPLAYNLLKRNLFAEIIEEHLANRSQENIDQLAA
	unable to appreciably inhibit	HPF1 mutant (D283A): binding-deficient HPF1 mutant (protein, left off: 6xHis, N-terminal, cleaved | SUMO, N-terminal, cleaved | FLAG, N-terminal, kept) KFCEADVSSDLRKEVENHYKLSLPEDFYHFWKFCEELDPEKPSDSLSASLGLQLVGPYDILAGKHKTKKKSTGLNFNLHWRFYYDPPEFQTIIIGDNKTQYHMGYFRDSPDEFPVYVGINEAKKNCIIVPNGDNVFAAVKLFLTKKLREITDKKKINLLKNIDEKLTEAARELGYSLEQRTVKMKQRDKKVVTKTFHGAGLVVPVDKNDVGYRELPETDADLKRICKTIVEAASDEERLKAFAPIQEMMTFVQFANAECDYGMGLELGMDLFCYGSHYFHKVAGQLLPLAYNLLKRNLFAEIIEEHLANRSQENIDQLAA
